Experimental findings from PMC3479192 are described below.

Like-named read-outs stand apart in the source and are kept apart here.

Test in all cases: dynamic light scattering
Assay [1] deals with full-length BLM protein (human) (UniProt P54132).
Assay [2] shares this target. The source holds these as a separate data set.
The target is the same in assay [3]. The source holds these as a separate data set.

With “full-length BLM protein, P54132 1-1417 (enzyme; other documents disagree on this pair)”, the stoichiometry N in assay [1] amounted to 6. Further, in assay [2], the stoichiometry N worked out at 3. Besides, in assay [3], the % mass in the high-order oligomer peak (radius 9.9 nm) was 96.1%, the % mass in the high-order oligomer peak (radius 10.1 nm) was determined as 97.2%, the % mass in the high-order oligomer peak (radius 12.6 nm) turned out to be 62.2% and the % mass in the high-order oligomer peak (radius 12.7 nm) came to 57.8%. Further, in assay [3], the % mass in the high-order oligomer peak (radius 20.3 nm) turned out to be 90.5%, the % mass in the low-order oligomer peak (radius 8.2 nm) stood at 37.8% and the stoichiometry N amounted to 6.

One may read the stoichiometry N as a count of units in the complex or per binding partner.
